Residue numbers refer to the chain shown, from its start. Numbers in names are those of the source. Read-outs that look alike come from different tables or passages of the source.

The target of assay [1] is T1, FcgRIIb (human, UniProt P31994 43-217).
T1 construct: extracellular domain; also called FcγRIIb; CD32B; not shown: C-terminal His tag
T1 sequence (looked up): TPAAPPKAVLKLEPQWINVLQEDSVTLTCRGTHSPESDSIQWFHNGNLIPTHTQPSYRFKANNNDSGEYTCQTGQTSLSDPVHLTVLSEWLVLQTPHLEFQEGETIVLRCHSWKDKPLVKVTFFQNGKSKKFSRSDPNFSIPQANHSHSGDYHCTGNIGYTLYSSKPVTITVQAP
The assay is described as follows: SPR (Biacore), antibody captured on chip, FcgR as analyte. Here is the method: (§1) The variants described above were assessed for their binding to FcgR according to the method described in Reference Example 8.
(§2) Analysis of interaction between obj ective antibody and the FcγR was carried out using Biacore T100 (GE Healthcare), Biacore T200, Biacore A100, and Biacore 4000. HBS-EP+ (GE Healthcare) was used as the running buffer, and the measurement temperature was set to 25° C. Chips produced by immobilizing the antigen peptide by the amine coupling method to a Series S sensor Chip CM5 (GE Healthcare), chips produced by allowing preliminarily biotinylated antigen peptides to interact with and immobilize onto a Series S Sensor Chip SA (certified) (GE Healthcare), chips produced by immobilizing Protein L (ACTIGEN, BioVision) to Series S Sencor Chip CM5 (GE Healthcare), or chips produced by immobilizing Protein A/G (Thermo Scientific) to Series S Sencor Chip CM5 (GE Healthcare) were used. Antibodies of interest were captured onto these chips, and allowed to interact to each FcγR diluted with running buffer. To regenerate and repeatedly use the chip, the antibodies captured onto the chip were washed off by reacting 10 mM glycine-HCl, pH 1.5.
(SPR reads the build-up and loss of mass on a sensor chip optically.)

For assay [2], the target named is T2, FcgRIIaR (human, UniProt P12318 34-217).
T2 construct: extracellular domain; R131 allotype; also called FcγRIIa R; FcgRIIa type R; not shown: C-terminal His tag
T2 sequence (looked up): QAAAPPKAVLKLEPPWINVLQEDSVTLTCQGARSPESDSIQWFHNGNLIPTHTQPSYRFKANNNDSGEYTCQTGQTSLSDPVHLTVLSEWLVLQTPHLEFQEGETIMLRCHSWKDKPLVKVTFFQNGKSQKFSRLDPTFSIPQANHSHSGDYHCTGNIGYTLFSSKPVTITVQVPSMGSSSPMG
Described as above. Here is the method: as §1, §2

The target in assay [3] is T3, FcgRIIIaV (human, UniProt P08637 17-208).
T3 construct: extracellular domain; V158 allotype; also called FcγRIIIa V; not shown: C-terminal His tag
T3 sequence (P08637 17-208 F176V limits assumed): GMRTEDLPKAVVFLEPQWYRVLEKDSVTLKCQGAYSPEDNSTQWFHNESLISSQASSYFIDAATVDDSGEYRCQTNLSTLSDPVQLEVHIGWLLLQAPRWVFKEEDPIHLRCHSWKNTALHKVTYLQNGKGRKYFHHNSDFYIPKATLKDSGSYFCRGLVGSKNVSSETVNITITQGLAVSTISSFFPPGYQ
The description is as above. Here is the method: as §1, §2

Assay [4] addresses T4, FcgRIa (human, UniProt P12314 16-292).
T4 construct: extracellular domain; also called FcγRIa; FcγRI; not shown: C-terminal His tag
The assay is described as above. Here is the method:
as §1, §2

For assay [5], the target named is T5, FcgRIIIaF (human, UniProt P08637 17-208).
T5 construct: extracellular domain; F158 allotype; also called FcγRIIIa F; not shown: C-terminal His tag
T5 sequence (P08637 17-208): as the sequence (P08637 17-208 F176V limits assumed) above, with V160F counted along it
The description is as above. Here is the method:
as §1, §2

In assay [6] the target is T6, FcgRIIaH (human, UniProt P12318 34-217).
T6 construct: extracellular domain; H131 allotype; also called FcγRIIa H; FcgRIIa type H; not shown: C-terminal His tag
T6 sequence (looked up): T2 sequence (looked up) with R134H
The assay is described as above. The procedure: as §1, §2

For assay [7], the target named is T1, FcgRIIb. The description is as above. The procedure:
(§3) The variants described above were assessed for their binding to FcγR according to the method described in Reference Example 8.
as §2
This is another data set of the same source.

Assay [8] deals with T2, FcgRIIaR. Described as above. Here is the method: as §3, §2
The source holds these as a separate data set.

Assay [9] has as its target T3, FcgRIIIaV. Described as above. The procedure: as §3, §2
The source holds these as a separate data set.

In assay [10] the target is T4, FcgRIa. The assay is described as above. The procedure: as §3, §2
The source holds these as a separate data set.

Assay [11] concerns the target T5, FcgRIIIaF. The description is as above. Here is the method: as §3, §2
The source holds these as a separate data set.

Assay [12] deals with T6, FcgRIIaH. The description is as above. The procedure:
as §3, §2
The source holds these as a separate data set.

Assay [13] has as its target T1, FcgRIIb. The assay is described as follows: SPR (Biacore); KD of H240-Kn120/H240-Hl068/L73-k0 divided by KD of the sample. The procedure: as §3, §2
Assay [14] concerns the target T2, FcgRIIaR. The assay is described as above. The procedure:
as §3, §2

The target in assay [15] is T3, FcgRIIIaV. The description is as above. Here is the method:
as §3, §2

The target in assay [16] is T5, FcgRIIIaF. Described as above. The procedure:
as §3, §2

For assay [17], the target named is T6, FcgRIIaH. Described as above. The procedure:
as §3, §2

In assay [18] the target is T1, FcgRIIb. The description is as above. The procedure: as §1, §2
The source holds these as a separate data set.

For assay [19], the target named is T2, FcgRIIaR. The description is as above. Here is the method:
as §1, §2
This is another data set of the same source.

The target of assay [20] is T3, FcgRIIIaV. Described as above. The procedure: as §1, §2
The source holds these as a separate data set.

The target in assay [21] is T5, FcgRIIIaF. The assay is described as above. Here is the method:
as §1, §2
The source holds these as a separate data set.

Assay [22] concerns the target T6, FcgRIIaH. The assay is described as above. Here is the method:
as §1, §2
The source holds these as a separate data set.

T4 sequence (P12314 16-292): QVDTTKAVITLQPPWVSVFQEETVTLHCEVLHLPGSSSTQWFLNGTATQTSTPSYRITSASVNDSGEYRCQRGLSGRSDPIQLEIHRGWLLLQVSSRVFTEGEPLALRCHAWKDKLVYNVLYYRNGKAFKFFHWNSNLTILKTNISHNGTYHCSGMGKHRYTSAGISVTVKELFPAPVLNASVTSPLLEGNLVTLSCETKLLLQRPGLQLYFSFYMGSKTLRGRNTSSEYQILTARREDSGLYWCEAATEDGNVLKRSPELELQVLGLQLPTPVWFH

B1: H240-Kn120/H240-Hl068/L73-k0 (antibody, human IgG1, kappa)
heavy 1: QDQLVQSGAEVKKPGASVKVSCKASGFNIKDTYIQWVRQAPGQGLEWMGRIDPLRKQTKYREKFEGRVTITADTSTNTAYMELSSLRSEDTAVYYCVRSGREFDYWGQGTLVTVSSASTKGPSVFPLAPSSKSTSGGTAALGCLVKDYFPEPVTVSWNSGALTSGVHTFPAVLQSSGLYSLSSVVTVPSSSLGTQTYICNVNHKPSNTKVDKKVEPKSCDKTHTCPPCPAPEYYWGPMVFLFPPKPKDTLMISRTPEVTCVVVDVSDEDPEVKFNWYVDGVEVHNAKTKPREEQYNATYRVVSVLTVLHQDWLNGKEYKCKVSNKDLPAPIEKTISKAKGQPREPQVCTLPPSRDELTKNQVSLWCLVKGFYPSDIAVEWESNGQPENNYKTTPPVLDSDGSFFLYSKLTVDKSRWQQGNVFSCSVMHEALHNHYTQKSLSLSP
heavy 2: QDQLVQSGAEVKKPGASVKVSCKASGFNIKDTYIQWVRQAPGQGLEWMGRIDPLRKQTKYREKFEGRVTITADTSTNTAYMELSSLRSEDTAVYYCVRSGREFDYWGQGTLVTVSSASTKGPSVFPLAPSSKSTSGGTAALGCLVKDYFPEPVTVSWNSGALTSGVHTFPAVLQSSGLYSLSSVVTVPSSSLGTQTYICNVNHKPSNTKVDKKVEPKSCDKTHTCPPCPAPELLGGPSVFLFPPKPKDTLMISRTPEVTCVVVDVSHEEPEVKFNWYVDGVEVHNAKTKPREEQYNSTYRVVSVLTVLHQDWLNGKEYKCKVSNDALPKPIEETISKAKGQPREPQVYTLPPSRCELTKNQVSLSCAVKGFYPSDIAVEWESNGQPENNYKTTPPVLDSDGSFFLVSKLTVDKSRWQQGNVFSCSVMHEALHNHYTQKSLSLSP
light: DIQMTQSPSSLSASVGDRVTITCRASQDIHKYIAWYQQKPGQAPRLLIQYTSTLQPGVPSRFSGSGSGTDYTFTISSLQPEDIATYYCLQYEQLRTFGGGTKVEIKRTVAAPSVFIFPPSDEQLKSGTASVVCLLNNFYPREAKVQWKVDNALQSGNSQESVTEQDSKDSTYSLSSTLTLSKADYEKHKVYACEVTHQGLSSPVTKSFNRGEC
notes: Heterodimerized anti-epiregulin IgG1-type antibody (knobs-into-holes); also called H240-Kn120/H240-HI068/L73-k0
As usually defined, the Kd is the free concentration of one partner at which half of the binding sites on the other are occupied at equilibrium, for simple one-to-one binding. A lower Kd goes with tighter binding. With B1, the equilibrium dissociation constant (Kd) came out at 150 nM in [1]; 20 nM in assay [2]; 0.36 nM in [3]; 0.16 nM in assay [4]; 2.2 nM in [5]; 41 nM in assay [6]. In addition, the Kd in assay [7] was 150 nM; in assay [8], 20 nM; in [9] it was 0.36 nM; in assay [10] it was 0.16 nM; in assay [11] it was 2.2 nM; in assay [12], 41 nM. Also, the “Relative KD” value in assay [13], in assay [14], in assay [15], in [16], in [17] and in assay [18] was 1 throughout. For the same molecule, the “Relative KD” value in assay [19], in [20], in assay [21] and in [22] was 1 in each case.

B2: H240-Kn180/H240-Hl089/L73-k0 (antibody, human IgG1, kappa)
heavy 1: B1 heavy 1 with E293R
heavy 2: B1 heavy 2 with G235T
light: B1 light
notes: Heterodimerized anti-epiregulin antibody; E294K in one chain, G236T in the other
As for B2, the Kd in [7] came to 380 nM; in assay [8] it was 16 nM; in assay [9], 14 nM; in [10] it was 0.27 nM; in assay [11] it was 24 nM; in assay [12], 38 nM. The “Relative KD” value in [13] came out at 0.4; in [14], 1.3; in assay [15], 0; in assay [16] it was 0.1; in assay [17], 1.1.

B3: H240-Kn179/H240-Hl089/L73-k0 (antibody, human IgG1, kappa)
heavy 1: B1 heavy 1 with E293K
heavy 2: B1 heavy 2 with G235T
light: B1 light
notes: Heterodimerized anti-epiregulin antibody; E294R in one chain, G236T in the other
For B3, the Kd in assay [7] is 400 nM; in [8], 18 nM; in assay [9], 18 nM; in [10], 0.46 nM; in [11], 39 nM; in assay [12], 47 nM. Further, the “Relative KD” value in [13] is 0.4; in assay [14], 1.1; in assay [15], 0; in assay [16], 0.1; in assay [17], 0.9.

B4: H240-Kn120/H240-Hl086/L73-k0 (antibody, human IgG1, kappa)
heavy 1: B1 heavy 1
heavy 2: B1 heavy 2 with G235I
light: B1 light
notes: Heterodimerized anti-epiregulin antibody; G236I in the Hl068 chain; also called H240-Kn120/H240-HI086/L73-k0
For the molecule B4, the Kd in [1] worked out at 480 nM; in assay [2], 22 nM; in assay [3] it was 14 nM; in assay [4], 1.4 nM; in assay [5], 33 nM; in assay [6], 53 nM. Also, the “Relative KD” value in assay [18] was 0.3; in assay [19], 0.9; in assay [20], 0; in assay [21] it was 0.1; in [22] it was 0.8.

The values above are taken from patent US20180155451A1 (published 2018).
